Experimental data taken from patent publication US20260275317A1, “CHIMERIC ENDOLYSINS WITH ACTIVITY AGAINST STREPTOCOCCI AND STAPHYLOCOCCI” (UNIVERSITEIT GENT, priority 2023, published 2026).

What was measured:
[1] = tested on: S. dysgalactiae; assay: Turbidity reduction assay (TRA), S. dysgalactiae; type: cell-based, Streptococcus dysgalactiae
Procedure: (§1) Concerning the time killing assay, an overnight bacterial culture was diluted 1:10 for S. uberis, S. agalactiae-& dysgalactiae or 1:100 for S. aureus in PBS or UHT-pasteurized whole cow's milk. A volume of 10 μL thereof was combined with an equal amount of chimeric endolysin in PBS (or only PBS as negative control) in triplicate and incubated in a covered 96-well microtiter plate at 37° C. for 2 h. The dose was low (i.e. 0.25 μM), but this was chosen to differentiate between less and better performing variants, consequently allowing a ranking. Finally, these fractions were serially diluted 1:10 in PBS. 5 μL of each fraction was spotted on TSA or BHI-agar and incubated overnight at 37° C. The following day, colony forming units (CFU) were counted and converted to CFU/mL to calculate logarithmic reductions in comparison with the negative control. The relative scores were calculated by dividing the observed logarithmic reduction for each endolysin by the maximal reduction observed for that specific condition and strain. Next, this value was divided by the number of conditions and strains tested (i.e., 8=4 bacterial strains×2 conditions (PBS/UHT-milk)). As such, the best performing candidate in each individual assay received a score of 0.125 (=(1/1)/8). […] Turbidity reduction assays were performed by combining 100 μL of overnight grown bacterial cells with an equal volume of purified enzyme at the desired concentration. Bacterial cells were washed with PBS and resuspended in a 1:1 ratio with enzyme to an OD600 of approximately 1.0. Next, the OD600 was measured using a Tecan infinite 200 PRO plate reader (Tecan, Switzerland) every 15 seconds at 37° C., shaking the 96-well plate between each measurement.
(§2) Time killing and turbidity reduction assays were performed as previously described in 1.3.1.

[2] = tested on: S. uberis GCC ST-143 biofilm; assay: Biofilm eradication assay; type: cell-based, Streptococcus uberis; conditions: 1.5 μM, 2 h30, 37° C.
Procedure: Biofilms were grown by transferring mid-log phase bacteria (OD600=0.6) grown in brain heart infusion (BHI) (Oxoid, Belgium) containing 0.25% α-D-glucose (ThermoFisher Scientific, USA) to a nunclon delta-treated, U-shaped-bottom 96-well microplate (ThermoFisher Scientific, USA). This whole was incubated for 21-24 h in a box containing a wet tissue. Subsequently, media and planktonic cells were removed and 1.5 µM of chimeric endolysin was allowed to eradicate the biofilms during 2 h30 at 37° C. on a shaker at 120 rpm. […] Biomass was fixated with 100% ethanol (ThermoFisher Scientific, USA) and stained with crystal violet (0.1% crystal violet (Sigma-Aldrich, USA), 5% methanol and isopropanol (ThermoFisher Scientific, USA) in PBS. Triple washing with PBS by inverting the plate was executed before solubilizing the stained biomass in 30% acetic acid (Chem-Lab, Belgium). OD590 nm was measured using a CLARIOstar Plus plate reader (BMG Labtech, The Netherlands). Logarithmic reductions were determined by scraping biomass from the wells with a sterile tooth picker followed by resuspension in PBS, which was subsequently serially diluted and spotted on BHI-agar. CFU/mL were counted after overnight incubation at 37° C.

[3] = tested on: S. agalactiae; assay: Time killing assay (TKA), S. agalactiae; type: cell-based, Streptococcus agalactiae; conditions: 0.3 μM
Procedure: as §1, with “A volume of 10 μL thereof was combined with an equal amount of chimeric endolysin in PBS (or only PBS as negative control) in triplicate and incubated in a covered 96-well microtiter plate at 37° C. for 2 h. The dose was low (i.e. 0.25 μM), but this was chosen to differentiate between less and better performing variants, consequently allowing a ranking.” left out
as §2
(§3) Time killing assays were performed as previously described in 1.3.1.

[4] = tested on: S. dysgalactiae; assay: Time killing assay (TKA), S. dysgalactiae; type: cell-based, Streptococcus dysgalactiae; conditions: 0.3 μM
Procedure: as §1, with “A volume of 10 μL thereof was combined with an equal amount of chimeric endolysin in PBS (or only PBS as negative control) in triplicate and incubated in a covered 96-well microtiter plate at 37° C. for 2 h. The dose was low (i.e. 0.25 μM), but this was chosen to differentiate between less and better performing variants, consequently allowing a ranking.” left out
as §2, §3

B1: NC5: chimeric endolysin SEQ ID NO: 17; HIV-1 TAT + PlySs2 CHAP + Ply1081 CW_7 + PlySs9 amidase_3 (protein)
chain: MYGRKKRRQRRRGATTVNEALNNVRAQVGSGVSVGNGECYALASWYERMISPDATVGLGAGVGWVSGAIGDTISAKNIGSSYNWQANGWTVSTSGPFKAGQIVTLGATPGNPYGHVVIVEAVDGDRLTILEQNYGGKRYPVRNYYSAASYRQQVVHYITPPGTVAQSAPNLAGAGIDQLVQETLAGKYGNGEQRKAALGSQYQAVMAVINGKATAPKKTVDQLAQEVIQGKHGNGEDRKKSLGPDYDAVQKRVTEILKGSPSGNIPKTPSDAPKSEVVNSSTEPKTEETGANGKATDTKITKGSGKHLVICGHGQGRTGYDPGAVNAKLGITEAGKVRELSKLMSKYSGQQIDFITEQNVYDYRSITSIGKGYDSITELHFNAFNGSAKGTEVLIQSSLEADKEDMAILSLLSRYFQNRGIKKVDWLYNANQAASRGYTYRLVEIAFIDNEQDMAIFENKKEDIAKGLVSAITGVEVKTIVPSPPSSTVGSSGTPSKSIYLVGDSLRVLPHATHYQTGQKIANWVKGRTYKILQVKNVHQSNSKRAYLLDGIKSWVLEQDVEGTTKGHSKYHHHHHH
In the case of B1, the “lysis speed (ΔOD600/min)/μM” value ([1]; S. dysgalactiae 1, 0.3 μM) is reported as 0.25 (ΔOD600/min)/μM, the ΔOD600 ([1]; S. dysgalactiae 1, 1 h, 0.3 μM) is reported as 0.48 and the “lysis speed (ΔOD600/min)/μM” value ([1]; S. dysgalactiae 2, 0.3 μM) is reported as 0.30 (ΔOD600/min)/μM. The ΔOD600 ([1]; S. dysgalactiae 2, 1 h, 0.3 μM) was 0.66, the “lysis speed (ΔOD600/min)/μM” value ([1]; S. dysgalactiae 3, 0.3 μM) was 0.25 (ΔOD600/min)/μM and the ΔOD600 ([1]; S. dysgalactiae 3, 1 h, 0.3 μM) was 0.51. For the same molecule, the “ΔOD, reductions up to” value ([1]; three clinical S. dysgalactiae isolates, 0.3 μM) was at most 0.48±0.03, the “reduction of biofilm mass (crystal violet)” value [2] was “significant (p<0.001) reduction of the biofilm mass” and the “Δ Log10 reduction of biofilm CFU” value [2] was 1.17±0.39 Log10. For the same molecule, the “ΔLog10 (CFU/mL)” value ([3]; S. agalactiae 1, 1 h) was 1.49 Log10 (CFU/mL), the “ΔLog10 (CFU/mL)” value ([3]; S. agalactiae 2, 1 h) was 1.50 Log10 (CFU/mL) and the “ΔLog10 (CFU/mL)” value ([3]; S. agalactiae 3, 1 h) was 0.00 Log10 (CFU/mL). The log10 reduction ([3]; mastitis-derived S. agalactiae, versus PBS) was 1.50±0.12 log10, the “Δ log10, reductions up to” value ([3]; three clinical S. agalactiae isolates) was at most 1.50±0.02 log10 and the “ΔLog10 (CFU/mL)” value ([4]; S. dysgalactiae 1, 1 h) was 1.77 Log10 (CFU/mL). For the same molecule, the “ΔLog10 (CFU/mL)” value ([4]; S. dysgalactiae 2, 1 h) was 0.15 Log10 (CFU/mL), the “ΔLog10 (CFU/mL)” value ([4]; S. dysgalactiae 3, 1 h) was 1.11 Log10 (CFU/mL) and the log10 reduction ([4]; mastitis-derived S. dysgalactiae, versus PBS) was 1.11±0.17 log10. For the same molecule, the “Δ log10, reductions up to” value ([4]; three clinical S. dysgalactiae isolates) was at most 1.77±0.43 log10.
